Assay results published in publication PMC4055408, “The Transcription Factor TFII-I Promotes DNA Translesion Synthesis and Genomic Stability” (PLoS Genetics, 2014).
Each block holds one binder with its values, some of them ahead of it.

How the values were obtained:
[1] = target: T1, Rev7 R124A–Rev3L (residues 1847–1898) complex (human, UniProt Q9UI95 1-211; O60673 1847-1898, R124A); assay: SEC; purified recombinant proteins mixed (1:1:1 molar ratios for Figure 1E) and fractionated on Superdex 200 10/300 GL; fractions on SDS-PAGE, Coomassie; details: both partners purified
T1 construct: human Rev7 with R124A (disrupts Rev7 dimerization); also called Rev7–Rev3L; source: recombinant, purified; prepared as previously described; copies: 1 + 1

[2] = target: T2, His6-Rev7 R124A (human, UniProt Q9UI95 1-211, R124A); assay: as above; details: both partners purified
T2 construct: human Rev7 with R124A (disrupts Rev7 dimerization); The Rev7 chain of m12, written alone for the pairs that touch inside the reconstituted complexes; source: prepared as previously described

[3] = target: the molecule itself; assay: SEC; single purified TFII-I fragments fractionated on Superdex 200; apparent molecular mass against standards; monomer or homodimer

T1 sequence (Q9UI95 whole entry R124A, the tested form may be a part, one chain of several): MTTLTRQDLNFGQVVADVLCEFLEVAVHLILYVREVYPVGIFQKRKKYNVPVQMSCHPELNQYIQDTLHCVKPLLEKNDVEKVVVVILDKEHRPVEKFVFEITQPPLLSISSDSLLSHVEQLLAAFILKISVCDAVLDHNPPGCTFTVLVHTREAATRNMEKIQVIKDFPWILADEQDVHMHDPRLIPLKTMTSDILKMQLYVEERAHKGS
T2 sequence (Q9UI95 whole entry R124A): as the sequence (Q9UI95 whole entry R124A, the tested form may be a part, one chain of several) above

stoichiometry N [1]: 1
B1: Rev1 CTD (residues 1140–1251) (domain or fragment, human, UniProt Q9UBZ9 1140-1251, looked up)
chain: GLSSLQSDPAGCVRPPAPNLAGAVEFNDVKTLLREWITTISDPMEEDILQVVKYCTDLIEEKDLEKLDLVIKYMKRLMQQSVESVWNMAFDFILDNVQVVLQQTYGSTLKVT
notes: Rev1 C-terminal domain, residues 1140-1251; also called C-terminal domain (CTD) of Rev1; source: bacteria, GST fusion, purified (glutathione-Sepharose 4B, PreScission, anion exchange, size exclusion)

binding result [2]: binds
B2: Rev3L RBM (residues 1847–1898) (domain or fragment, human, UniProt O60673 1847-1898, looked up)
chain: MLTPTPDSSPRSTSSPSQSKNGSFTPRTANILKPLMSPPSREEIMATLLDHD
notes: The Rev3L chain of m12; also called Rev3L fragment; source: recombinant, purified together with His6-Rev7 R124A; prepared as previously described

stoichiometry N [1]: 1
B3: TFII-I fragment (residues 350–667) containing R2-R4 (domain or fragment, human, UniProt P78347 350-667, looked up)
chain: NFEKWNARITDLRKQVEELFERKYAQAIKAKGPVTIPYPLFQSHVEDLYVEGLPEGIPFRRPSTYGIPRLERILLAKERIRFVIKKHELLNSTREDLQLDKPASGVKEEWYARITKLRKMVDQLFCKKFAEALGSTEAKAVPYQKFEAHPNDLYVEGLPENIPFRSPSWYGIPRLEKIIQVGNRIKFVIKRPELLTHSTTEVTQPRTNTPVKEDWNVRITKLRKQVEEIFNLKFAQALGLTEAVKVPYPVFESNPEFLYVEGLPEGIPFRSPTWFGIPRLERIVRGSNKIKFVVKKPELVISYLPPGMASKINTKALQ
notes: source: bacteria, GST fusion, purified (glutathione-Sepharose 4B, PreScission, anion exchange, size exclusion)

B4: TFII-I^1–667 fragment (domain or fragment, human, UniProt P78347 1-667, looked up)
chain: MAQVAMSTLPVEDEESSESRMVVTFLMSALESMCKELAKSKAEVACIAVYETDVFVVGTERGRAFVNTRKDFQKDFVKYCVEEEEKAAEMHKMKSTTQANRMSVDAVEIETLRKTVEDYFCFCYGKALGKSTVVPVPYEKMLRDQSAVVVQGLPEGVAFKHPENYDLATLKWILENKAGISFIIKRPFLEPKKHVGGRVMVTDADRSILSPGGSCGPIKVKTEPTEDSGISLEMAAVTVKEESEDPDYYQYNIQAGPSETDDVDEKQPLSKPLQGSHHSSEGNEGTEMEVPAEDSTQHVPSETSEDPEVEVTIEDDDYSPPSKRPKANELPQPPVPEPANAGKRKVREFNFEKWNARITDLRKQVEELFERKYAQAIKAKGPVTIPYPLFQSHVEDLYVEGLPEGIPFRRPSTYGIPRLERILLAKERIRFVIKKHELLNSTREDLQLDKPASGVKEEWYARITKLRKMVDQLFCKKFAEALGSTEAKAVPYQKFEAHPNDLYVEGLPENIPFRSPSWYGIPRLEKIIQVGNRIKFVIKRPELLTHSTTEVTQPRTNTPVKEDWNVRITKLRKQVEEIFNLKFAQALGLTEAVKVPYPVFESNPEFLYVEGLPEGIPFRSPTWFGIPRLERIVRGSNKIKFVVKKPELVISYLPPGMASKINTKALQ
notes: as for B3
stoichiometry N [3]: 2
